The values that follow come from patent US20110286916A1 (published 2011).

Sequences and labels used below:
B1: N1wc157 (scFv, V domains shown)
VH: QVQLVQSGAGLKRPGTSVKISCKTSGYIFSQYPMHWVRQAPGQGLEWVAWVDTGNGTTRYSPNFQGRATVSGDTSANTGYLELRSLRFTDTAVYYCATNAFDYWGRGTLVTVSS
VL: SYELTQPPSVSVSPGQTARITCSGDALPDKYVHWYQQKSGQAPVLVLFDDSKRPSGIPERFSGSSSGTVATLIISGAQVEDEGDFFCYSTDSSGNERVFGGGTKLTVL
notes: phage scFv
B2: N1wc160 (scFv, V domains shown)
VH: QVQLQESGAEVKKPGASVKVSCKASGYNFTGYYMHWVRQAPGQGLEWMGWINPNSGGTNYAQKFQGRVTMTRDTSISTAYMELSRLRSDDTAVYYCATDSFDYWGRGTMVTVSS
VL: SYVLTQPPSASGTPGQRVTISCSGSSSNIGSNTVHWYQQLPETAPKLLIYTNNQRPSGVPDRFSGSKSGTSASLAISGLQSEDEADYYCASWDDSLKAYVFGTRTKLTVL
notes: phage scFv
B3: N1wc202 (scFv, V domains shown)
VH: B2 VH with Q1E, Q5V, E6Q, M109L
VL: SYELTQPPSVSGTPGQRVTISCSGSSSNIESNAVHWYQHLPGRAPKLLIFSHNQRPSGVPARFSGSKSGTSASLAISGLQSEDEADYYCAAWDDSLSGYVFASGTKLTVL
notes: phage scFv
B4: N1wc102 (scFv, V domains shown)
VH: B2 VH with Q5V, E6Q, S17P, T69A, R106Q
VL: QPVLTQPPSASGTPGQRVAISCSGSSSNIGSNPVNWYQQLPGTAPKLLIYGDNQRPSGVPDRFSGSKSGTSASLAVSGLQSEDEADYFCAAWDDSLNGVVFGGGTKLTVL
notes: phage scFv
B5: N1wc403 (scFv, V domains shown)
VH: B2 VH with Q1E, Q5V, E6Q, M109L
VL: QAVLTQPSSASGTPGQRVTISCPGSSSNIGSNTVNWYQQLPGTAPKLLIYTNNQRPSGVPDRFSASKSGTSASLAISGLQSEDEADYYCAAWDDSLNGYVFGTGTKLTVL
notes: phage scFv
B6: N1wc520 (scFv, V domains shown)
VH: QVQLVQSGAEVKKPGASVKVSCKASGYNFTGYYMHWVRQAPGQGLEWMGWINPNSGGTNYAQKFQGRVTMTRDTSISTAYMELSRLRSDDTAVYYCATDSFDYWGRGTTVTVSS
VL: B3 VL with E3V, L107V
notes: phage scFv
B7: N1wc248 (scFv, V domains shown)
VH: B2 VH with Q1E, Q5V, E6Q, T91S, M109L
VL: QSVLTQPPSASGTPGQRVTISCSGSSSNIGSNSVYWYQQFPGTAPKLLIYRNNQRPSGVPDRFSGSKSDTSASLAISGLRSEDEADYYCATWDDSLSGVVFGGGTKLTVL
notes: phage scFv
B8: N1wc15 (scFv, V domains shown)
VH: B2 VH with E6Q, R106Q
VL: not shown
notes: phage scFv
B9: N1wc135 (scFv, V domains shown)
VH: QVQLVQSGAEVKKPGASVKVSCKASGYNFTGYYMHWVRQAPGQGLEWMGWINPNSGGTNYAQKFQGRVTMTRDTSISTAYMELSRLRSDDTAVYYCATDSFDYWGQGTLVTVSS
VL: B7 VL with Q1L, S2P, T19I, S33Y, F40L, D69G, Y88H, T91A
notes: phage scFv
B10: N1wc516 (scFv, V domains shown)
VH: B2 VH with Q1E, Q5V, T69I, R87T, M109L
VL: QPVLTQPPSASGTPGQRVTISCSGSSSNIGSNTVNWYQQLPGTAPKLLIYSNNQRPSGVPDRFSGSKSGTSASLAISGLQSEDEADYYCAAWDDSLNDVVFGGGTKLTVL
notes: phage scFv
B11: N1wc625 (scFv, V domains shown)
VH: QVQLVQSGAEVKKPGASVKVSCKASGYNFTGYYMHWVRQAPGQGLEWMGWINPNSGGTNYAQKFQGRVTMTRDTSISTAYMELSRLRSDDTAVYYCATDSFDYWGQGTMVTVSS
VL: QSVLTQPPSASGTPGQRVTISCSGGRSNIGTNYVYWYQKLPGTAPKSLIYTTNQRPSGVPDRFSGSKAGTSASLAISGLRSEDEGDYYCASWDESLNGVVFGGGTKVTVL
notes: phage scFv
B12: N1wc175 (scFv, V domains shown)
VH: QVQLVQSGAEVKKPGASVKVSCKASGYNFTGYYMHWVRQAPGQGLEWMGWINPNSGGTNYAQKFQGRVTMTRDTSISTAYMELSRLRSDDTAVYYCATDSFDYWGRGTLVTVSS
VL: QSVLTQPPSASGTPGQRVTISCSGSRSSIGSNTVSWYQQLPGTAPKLIIYTNNQRPSGVPDRFSGSKSGTSATLAISGLQSEDEADYYCASWDDSLNDYVFGVGTKVTVL
notes: phage scFv
B13: hN1S3-130 (scFv, V domains shown)
VH: KVQLVQSGAEVKKPGASVKVSCKASGYTFTDFYIHWVRQAPGQGLEWMGWINSKSGDTHYAQKFQGRVTLTRDTSTDTAYMELSRLTSDDTAVYYCARGAYDYVWGSSRYVADAFDIWGRGTMVTVSS
VL: DIVMTQSPSTLSASVGDRVTITCRASQGISSWLAWYQQKPGRAPKVLIYKASTLESGVPSRFSGSGSGTDFTLTISSLQPEDFATYYCQQSYSTPWTFGQGTKLEIK
notes: phage scFv
B14: hN1S3-147 (scFv, V domains shown)
VH: QVQLVQSGPEVKKPGTSVKVSCKASGFTFTSSAVQWVRQARGQRLEWIGWIVVGSGNTNYAQKFQERVTITRDMSTSTAYMELSSLRSEDTAVYYCVADTVYWGKGTLVTVSS
VL: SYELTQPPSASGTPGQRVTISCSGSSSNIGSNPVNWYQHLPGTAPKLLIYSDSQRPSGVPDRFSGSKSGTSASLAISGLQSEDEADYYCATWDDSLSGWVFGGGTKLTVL
notes: phage scFv
B15: hN1S3-133 (scFv, V domains shown)
VH: B14 VH with K105Q
VL: QSVLTQPPSVSEAPRQRVTISCSGSSSNIGNNAVNWYQQLPGEAPKLLIYYDDLLPSGVSDRFSGSKSGSSASLAISGLQAEDEADYYCATWDDSLNAWVFGGGTKVTVL
notes: phage scFv
B16: hN1S3-082 (scFv, V domains shown)
VH: B14 VH with K105R
VL: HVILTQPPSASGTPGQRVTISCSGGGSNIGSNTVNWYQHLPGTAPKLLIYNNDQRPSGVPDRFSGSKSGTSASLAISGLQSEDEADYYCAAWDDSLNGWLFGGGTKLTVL
notes: phage scFv
B17: hN1S3-083 (scFv, V domains shown)
VH: QVQLQQSGPGLVKPSQTLSLTCAISGDSISSSSATWNWIRQSPSRGLEWLGRTYYRSKWYNDYAVSVKSRITIDPDTSKNQFSLQLNSVTPEDTAVYYCARQLGGRIEFWGQGTLVTVSS
VL: QSVLTQPPSASGSPGRSVTISCTGTSRDVGAYNYVSWYQQHPGEAPKLLISEVTKRPSGVPARFSASKSGNTASLTISGLQAEDEGDYYCSSYAGSDSWVFGGGTKLTVL
notes: phage scFv
B18: N1wc13 (scFv, V domains shown)
VH: B2 VH with Q5V, E6Q, D73E
VL: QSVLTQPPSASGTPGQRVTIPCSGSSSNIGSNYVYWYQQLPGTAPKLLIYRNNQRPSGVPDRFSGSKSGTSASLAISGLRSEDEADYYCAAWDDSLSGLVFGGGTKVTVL
notes: phage scFv
B19: N1wc72 (scFv, V domains shown)
VH: B2 VH with Q1E, Q5V, E6Q, R106K
VL: QPVLTQPPSASGTPGQRVTISCSGSYSNIGSNYVYWYQQFPGTAPKLLIYTNNQRPSGVPDRFSGSKSGSSASLAISGLRSEDEADYYCAAWDDSVGVLLFGGGTKVTVL
notes: phage scFv
B20: N1wc476 (scFv, V domains shown)
VH: B2 VH with Q1E, Q5V, E6Q, R106Q, M109L
VL: QAVLTQPSSVSGTPGQTVTISCSGSNSNIGNNYVYWYQQLPGSAPKVVIYRNHQRPSGVPDRFSGSKSGTAASLAISGLRSEDEADYYCASWDDSLSGLVFGGGTKLTVL
notes: phage scFv
B21: N1wc131 (scFv, V domains shown)
VH: B2 VH with Q1E, Q5V, E6Q, V11A, R106Q, M109L
VL: SYELTQPPSASGTPGQRVTISCSGTSSNIGINYVYWYQQLPRTAPKLLIYYNNQRPSGVPDRFSGSRSGTSASLAISGLRSEDEADYYCAAWDDSLSGLVFGTGTKLTVL
notes: phage scFv
B22: hN1S3-141 (scFv, V domains shown)
VH: B2 VH with Q5V, E6Q, M34I, T69I, M109L
VL: B19 VL with P2S, V107L
notes: phage scFv
B23: N1wc130 (scFv, V domains shown)
VH: B2 VH with E6Q, S88P, R106K
VL: QAVLTQPSSVSGAPGQRVTISCTGTGSNIGAGYDVHWYQQLPGTAPKLLIYANTNRPSGVPDRFSGSKSGTSASLAITGLQAEDEADYYCQSYDSSLSGSVFGGGTKVTVL
notes: phage scFv
B24: N1wc225 (scFv, V domains shown)
VH: B2 VH with E6Q
VL: B23 VL with A2S, L4V, S8P, T25S, G26S, A52G, T54S, V108L
B25: hN1S3-184 (scFv, V domains shown)
VH: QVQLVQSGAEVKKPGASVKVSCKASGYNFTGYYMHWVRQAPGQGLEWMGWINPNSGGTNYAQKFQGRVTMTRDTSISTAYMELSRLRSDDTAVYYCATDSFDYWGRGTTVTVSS
VL: B7 VL with S31G, S33Y, F40L, N52S, D69G, T91A, S97H, V100I
notes: phage scFv
B26: hN1S3-035 (scFv, V domains shown)
VH: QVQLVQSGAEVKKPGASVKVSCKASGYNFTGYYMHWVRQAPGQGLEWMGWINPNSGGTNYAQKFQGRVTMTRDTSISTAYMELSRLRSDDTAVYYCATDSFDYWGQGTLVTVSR
VL: B23 VL with T25S, G26S, A52G, T54S
notes: phage scFv
B27: N1wc79 (scFv, V domains shown)
VH: B2 VH with E6Q, R106Q
VL: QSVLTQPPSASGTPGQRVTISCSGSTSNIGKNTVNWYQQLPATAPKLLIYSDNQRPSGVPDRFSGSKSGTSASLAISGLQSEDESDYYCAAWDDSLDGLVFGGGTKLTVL
notes: phage scFv
B28: hN1S3-077 (scFv, V domains shown)
VH: EVQLVQSGAEVKKPGAPVKVSCKTSGYGFSNYYMHWVRQAPGQGLEWLGMINPSDGSQHFAQRFRDRVSFTSDTSTSAVYMELAGLRSDDTAVYYCAREKANSMYFDYWGQGTLVTVSS
VL: QSVVTQPPSLSAAPGQRVTISCSGSHSNIGNFYVSWYQQVPGAAPKLLIYDNNERPSGIPDRFSGSKSGTSATLDITGLQTGDEADYYCSTWDRSLSASVFGSGTKLTVL
notes: phage scFv

Changes are numbered by the printed parent chain.

The target in the first test is T1, human full-length Notch1 with C-terminal FLAG tag, stably expressed on 293 FlpIn (TREx) cells (human, UniProt P46531 19-2555).
T1 construct: tetracycline/doxycycline-induced expression from pcDNA5/FRT/TO-HN1+FLAG; also called hN1; 293_N1
Put plainly: FACS, phage scFv. (In general: In flow cytometry, cells or beads pass a laser one at a time.)
For the molecule B1, the binding result was “binds”. On the same count and under the same terms, in the case of B2 it was “binds”; in that of B3, “binds”. The same measure, in the same setting: in the case of B4 it was “binds”; in that of B5, “binds”.

Take B6: the binding result is given as “binds”. Consider B7, for which the binding result is “binds”. On the same count and under the same terms, for B8 the value was “binds”; for B9, “binds”. The same measure, in the same setting: for B10 the value was “binds”. As to B11, the binding result is given as “binds”. In the case of B12, the binding result is reported as “binds”.

Another test has as its target T2, human full-length Notch3 with C-terminal FLAG tag, stably expressed on 293 FlpIn (TREx) cells (human, UniProt Q9UM47 40-2321).
T2 construct: whole, on cells; made by the same strategy as the Notch1 line; also called 293-N3; hN3
Briefly: FACS, phage scFv.
On to B13, for which the binding result is given as “binds”. The same measure, in the same setting: for B14 the value was “binds”; for B15, “binds”; for B16, “binds”. With B17, the binding result is reported as “binds”. For the molecule B18, the binding result is recorded as “binds”.

Take B19: the binding result is on record as “binds”. As to B20, the binding result is listed as “binds”.

Consider B21, for which the binding result is reported as “binds”. Same read-out and setting: for B22 the value was “binds”. The same measure, in the same setting: in the case of B23 it was “binds”; in that of B24, “binds”. In the case of B4, the binding result was “binds”. Consider B25, for which the binding result is “binds”. Regarding B5, the binding result was “binds”. For the molecule B7, the binding result is given as “binds”. As to B26, the binding result is “binds”. Same read-out and setting: for B27 the value was “binds”; for B8, “binds”; for B9, “binds”. Same read-out and setting: in the case of B10 it was “binds”; in that of B28, “binds”.
